A short description of the data set: soluble on expression in E. coli; label from the status in PepcDB or PDB records.
In the case of “MSLKNTPPGFPSHSSATLAFALAIAAGGAQAAGFVEDAKGTLTLRNFFINRDFKGDNATRSKAEEWTQNFLLDLKSGYTEGPLGLGLDVLGLYSVKLDGGKGTGGTQLLPLDHDGKPADRFGRLAVAGKLKLSETELRAGEWALVLPILRSDDGRSLPQTFRGSMLTSKEIENLTLYAGHITGNSPRDDGSMEEMTLFGTSPYTSDRTSDDFDFGGLEYSFNGKRTLVGVWYARLKDIYKQRYIQLQHSQPLGGDWTLGANIGYFDGEDDGEALEGHLDNKALSGLFSLRTGAHTFYLGLQRISGDSKWLRVNGTSGGTLANDSYNSSYDNARERSWQLRYDYNFAALGMPGLTFMTRYISGKNIHVGAVDDGEEWGRESEVAYVVQSGAAKNLTLRWRNTTMRRDYGSDNQFNEQRLIVQYPLSLFEGHHHHHH”, the “soluble on expression in E. coli” value was “soluble”.
Under “MSTVKEAVDVEVPVHTAYNQWTQFEEFPHFMEGVEEVRQLDERHNHWTTQVSGVKREFDTEIVDQLPDERITWRTTTGDTNQKGTVRFQRLDDTHTRVELVMDVDPTGVAEKTGDMLGVIDRRVKGDMQRFKEYIEKRGGESGAWRGRIRPGELEHHHHHH” stands “soluble”; under “MLPFLAASPGLGDVRAPAIWLGLVSQPSRTPIITKNSKTKRKTDGSTTRQSSSLGPRSSPLRSAGGQLRKTTRSELKKSHFHLGSWNAQSLLGPRLASGVEYLKNSTCHVVNLQETRFFSMASIDQPEFQLLFSPKTNSKDLGLGFFVKKCQDLEVINVSWIGVGIASLELEFRKVKIMVLNVYAPVCKSRSENDAKRFFERLRAEYIQLRKSFKGPIVLGGDFNAATSCSTNDELAPWICGNVFGNSNNHGDFFFNFLASTRLFQLNSRFRKRLASRWTFAGKKGVGRTEIDFFISNRIDLVEDVSTFPNLHNLSDHRLIRSRWVISVKSERDHAFKSRRPPSTGKERDWTLYEDAIKDLRKHATLGSYDSFVKTLRQGLVPLPAHKPHKFSQRTIMILQERRQVLESSVPDIAKLRKLSQEARKSITEDLTQKYDSILEACRKKRSSKILNKSIPAEIPLQYLEWPDGSLTANRIEIRKIVESHFKTLYEAPTSSPSHPRNPNSNPPNSDPVPAILKCEVRLEIRKLKTKSAPGLDNVDAAMLKNGGDTVVDSVTALFNDILHHNKVPDLWKIADVKLIPKKAKATKIKDFRPISLLPILSKMFSSILTRRLTPTLESYLDESQTKVFRKGRCCADNIQSLTMLIEKCNEFQLPLLLLFIDYQTAFDKISHSSVVSSLERAGADPAMRKMIQELMEGGQAEITVHDKKLKVNLCTGIRQGDSASPALFSAALQAILTDCDNELAGVGISVEGRHIRRLEFADDVVLICSTPEEVQERLEILDRISSNYGLKINQSKTVLLKNKFCRSQDILFNGSPIIPVPGCRYLGRWIDISGSIDEEISRRIRAGWGALVGIKEVLRIMPNKERIILFKQNVLPALLYASETWTCNAGSTLRLKRTVTGLIDAAEIRGWNFNLERYLLAKQSRFAGHILRRDPF”, “not soluble”; under “MKCPFCAHPDTRVADSRLMEERNAVRRRRHCPNCGKRFGTLETAELKMPAVIGPDKKRSPFNAQRLRNDLTAAARKSALTPEQIDETVRLTEHRLYTSGQRDIPSAALADMVLKELLRQDTEAAVRFAALHKRFDNPADFASWLAQAVKTGGKA”, “not soluble”.
In the case of “EDGRILKRFCQCEQRSLEQLMKDPLRPFVPAYYGMVLQDGQTFNQMEDLLADFEGPSIMDCKMGSRTYLEEELVKARERPRPRKDMYEKMVAVDPGAPTPEEHAQGAVTKPRYMQWRETMSSTSTLGFRIEGIKKADGTCNTNFKKTQALEQVTKVLEDFVDGDHVILQKYVACLEELREALEISPFFKTHEVVGSSLLFVHDHTGLAKVWMIDFGKTVALPDHQTLSHRLPWAEGNREDGYLWGLDNMICLLQGLAQS”, the “soluble on expression in E. coli” value was “soluble”.
As for “MQGLTATLLPFGATLAKLTFPDKNGKNQDLVLGFDTIDEFEKDAASIGKTVGRVANRIKNSTLHFDGKQYTMTPNNGPHYLHGGPNGLGYRKWEVVRHAPESVSFSVRANEQDDGLPGDAKIDVTYTVNDRNQLIIEHHATCDTPGLLALTNHAYWNLDGSDTVAEHFLEMEADEFVEVDDTFCPTGAIRSVTDTGFDFRSGKQLKESGKDAEELLDLDNDLVITKKTP”, the “soluble on expression in E. coli” value is “not soluble”.
“MDRVDVVADLNDPLSCFPDDSVIEIYAHHVLEHVRNFIQLMQEVHRVCMRDSTVTIVVPHYSNQLAYSDPTHVRFFGLYTMCYFVERVFQPFKRKVPDFYIKEKFLLCEVVYDFEPKNTFLGRLFTRRVQLFINANPKRQEFYERYLCRFFPVASVRYVLSPVKLEHHHHHH”: the “soluble on expression in E. coli” value is recorded as “soluble”.
Under “MRISLPVAEAAAAGGRAGKHGKAITFLTPDDTAVYFDLKQVKIVDGHLPTHVFSLNCLRRYARMDSRNMMLHGANLDNSHLDVKVNFLFENFKHFSVFLKLTKSSK” stands “soluble”.
Regarding “MLGGYAHRIARIDLSTGQVEYFAPDPKDLEMYVGGRGLGVKYVFENGPQVDPLGPENLLCIMNGPLSGTRAKMSGRLAVVTKSPLTGTVTDSHMGGWTAAKLKWAGFDGLLIKGASEKPVYLLVKDGEVSIHDASDLWGKTTHETCRILRERHGEEADVMAIGPAGENLVRFANWINNDERAAGRGGTGAVAGSKKLKAIVVVGTHDKMPQPKDPELWKEADRLASATINDPKNVTAPKKGGLSLYGTNVLMNITNVMGALPTFNAQHTCIEGAEKISGEYIREHRLIKDNTCHACPVACKKMVEVHINGKTIRFESYEYESAWALGAHSGHTDTDWTGYAIYLCNAYGMDTIEAGNAIAVLMEATEKGYYQGEDGIRFGDKEGEIRVLEAIAYRKGVGDMLAEGPARFAKAIGHPEIALEVKGQSIPAYDPRGLKGMGIAYATSNRGACHLRAYTPASEILGVPYKTDPLAWEGKGKLTKLFQDLSAFTDSLDLCKFSQFAEGPEEYAKQLAAYWGRPVTPEEILRIGERIYNLERYYNNLAGWGEGSDYLPERFLKEPSDCAGSKGQVTELDRMLEEYYRERGWERGVVPPAKLQELGILSQAADD”, the “soluble on expression in E. coli” value was “soluble”.
Under “MVASCKSTSQPVSLSQKDSSPDFNRCRNDSEDTVNLTGSGDIYIDKESSQKALDDLLRKVTLDGGISLKDAKSSEILAAYERKIQMLQLELQMKNVPKPVVEIETTSQKIRDLAQECEALRDSNKQLTDHMTRGNLEINQLKVQLEEVKQKCDSIETSLGMCITEKAGLKTQLTESLQNAERNVHTAQNEISKLNTELAQSVTRIELFLAENRELKQEFEEKVVECEVLKEHIRQIDLELKNKQSDMERALLQISAAEQKAAKKELELIEAEKHLKLYESRLSDRERDLNAKNLEIDRLKLDLDAARRNLQKLEQMREAMLSLASSSSN” stands “not soluble”.
Under “MTETPMMDDLERVLYNQDDIQKRIRELAAELTEFYEDKNPVMICVLTGAVFFYTDLLKHLDFQLEPDYIICSSYSGTKSTGNLTISKDLKTNIEGRHVLVVEDIIDTGLTMYQLLNNLQMRKPASLKVCTLCDKDIGKKAYDVPIDYCGFVVENRYIIGYGFDFHNKYRNLPVIGILKESVYT” stands “soluble”.
Under “MGRVFKKKGGAKREAEEEKQEELVMRKKLRKEEEPEPVEDVEEDEDVSDEDDEDIDDEEEDEDEQNIMDFDFEAYPPSEDDRDGIVNMLTQTFLRTDIDLKAMSEGIIAKAPHGVVLTQAYDDEETEEDYMAYGLCTTVPLNDNKDDAPKFIKDLFTYVLNRAKKGAPTEIYKKIEEIQVSGDGKSALFVNERLLNFPTIVVPQIFGSIREDLSGFETKYKTIIYIQKLRIVETDGSEAKVGASSNGSSGVAGKKKGKMGKAEKKRAAAAALANAEIEFDNPEDRVLFEIKEGKEIHFDYPVHMDVEPGSKFHSTEKDGKKWNPFRRLVIMDDKRFDAFLKKGSDGIII” stands “not soluble”; under “MDFKQRHTWLKIASCKSISAKKRASIWQKLTEFDQYEMTTQTFAESFFPVDKLAQILMELETAEACFFDDVTLIWILDDAYPALLREIYEAPPILFCKGNIDLLQQQAIAIVGTRQMSEYGRKACMKIASELAENKLTIVSGMAIGIDSTAHRATLNKQGATIAVLGSGVNKVYPKKNELLAKEIVKEGLLLSEYLPDEEAKRWHFPERNRIISGLAIGTVIIEAAERSGSLITADIALEQNRQVFAVPGNIFIDTWQGTNYLIQEGAKLVMNSNNIIEEFIQIKP”, “not soluble”.
With “MLGKLPQQANDYLNSFNWERQVSHAKEKLTALTKKYRITENDIQIALDDAKINFNEKLSQLQTYMI”, the “soluble on expression in E. coli” value is recorded as “not soluble”.
Under “GPGSMSLVESQKGMTDLIPCNEQCGGDYGNYSFGQGDLDVTVTVPLPENTTKKMLLVQITASKLIVGLRGKPPIISGDFYRPVKASECTWCIEDKRLLVINMVKTNSQHEEWWPCVVVGERQIDMKTLKPPSKHVSELDESAQATIAKMMFDQRQKMQNLPTSEEMRLQEMMRAAQGAK” stands “soluble”; under “MSLASTVVIKEGSGSGAVAACTVPQVLEQIAQSFPESIAAISERGRITFAELEFRSNQLARLLVKRGVKVGAIVVLMTGRSIDTLIGMTAILKAGGVYMPLDVGLGPEAISGAIQDAQPALVLTEHQPALIDAIEQRRLSDELDASRLEPGDPLALELTPSLPAYVMFTSGSTGRPKGVVVPHRAIVRLVVDTDFMTLSPATVMLHAAPLAFDASTLEIWGPLLNGGQIVIVEDAVLSVDRIAETLGRFSVNAAWLTAGLFHLMVDERPEALSGLTTLLAGGDVLSPAHVRRAMALLPDCTIVNGYGPTENTTFTCCYSIPRTGWGDGPVPIGFPISGTSVHILSDTLEPVADGEEGQLCAGGIGLALGYLNRPELTAEKFIVDPLSDDPAARLYLTGDYVRRRSDGAIEFRGRRDRQVKINGVRIELDGVEQALRQDPVLADAAVVLSADRGDAKRIVAFLKPLPGDAAGDLEAGVIRRLKEQFPAQAIPSTIKVVDELPLNKNGKIDRAKLLSDLIATEQLGAGTDEEDFSDDSVGSIVADIWSALLGKSVDARANLFDLGATSLQMIAAHERIQAAIGIRFPVTDLFAHPSIAEFQACLDGASHRSLAIAGAAREGHHHHHH”, “soluble”.
Under “MAEEQQNSDQSNGGNVIPTPEEVATFLHKTVEEGGWEKCWEEEITPWDQGRATPLIVHLVDTSSLPLGRALVPGCGGGHDVVAMASPERFVVGLDISESALAKANETYGSSPKAEYFSFVKEDVFTWRPTELFDLIFDYVFFCAIEPEMRPAWAKSMYELLKPDGELITLMYPITDHVGGPPYKVDVSTFEEVLVPIGFKAVSVEENPHAIPTRKGKEKLGRWKKIN” stands “not soluble”.
With “MGSDKIHHHHHHMSGETLYQQLVNEWMELIRNGTVRPGERLPSVRKACAMHKVSPSTILQTYRMLEDRGLIEARPQSGFYVKSAASLPLPRMRRQSAAHHTGEVVDQIEAVMGVQSQADFIDLALASPRGSDFYPTTRFKHIMGRLLRQHPELTTDYPFPPGSERLRRQIAQRAVNWGCVLAADELVISNGCTEALQLALRAVCKPGDTVGVESPTYFALLPMLKDLGLAVIEIPTHPTSGLALDALELLLSEKRLNAVVAMPTVHNPLGSTMPPEAKRRLAQLVNDYQVPLIEDVPHAELFYGASTPDAVKAYDRDGWVLLCSSYSKTLAPGFRIGWIAPGRFLSEVRRLKFSSSLGQPALLEETLAEYLESGGYDHHLRLLRRHFISQMEKLRGAVAQHFPDGTRATLPSGGCLLWVELPSHADTMQLFRAALAERITVVPGAMYSAKGRYRNCLRLSCCYPWNEAYQRALIRVGELAGELAEGH”, the “soluble on expression in E. coli” value is listed as “not soluble”.
Under “MQNPFVPQLVYIEPRALEYPLGQELQDKFENMGIEIRETTSHNQVRNIPGKNHLQQYRNAKSTLVIGVRKTLKFDSSKPSAEYAIPFATGCMGHCHYCYLQTTMGSKPYIRTYVNVEEILDQADKYMKERAPEFTRFEASCTSDIVGIDHLTHTLKRAIEHFGQSDLGKLRFVTKFHHVDHLLDAKHNGKTRFRFSINADYVIKNFEPGTSPLDKRIEAAVKVAKAGYPLGFIVAPIYIHEGWEEGYRHLFEKLDAALPQDVRHDITFELIQHRFTKPAKRVIEKNYPKTKLELDEEKRRYKWGRYGIGKYIYQKDEEHALREALESYIDTFFPNAKIEYFT” stands “not soluble”.

These data come from the DeepSol protein solubility set.
